According to PMC3253120 (PLoS ONE, 2012):

molecular target: purified recombinant BoNT/A light chain (Lc) (Clostridium botulinum); experiment: ELISA; conditions: both partners purified

Binder	binding result
ciA-H4 (VHH, also called JEC-3; source: E. coli, purified as a thioredoxin fusion protein) VHH: SGGGLVQSGGSLRLSCAASVLTLEYYAIGWFRQAPGKEREGISCTGSSGGSTVYIDSVKGRFTVVRDNAKNMVYLQMDSLQPEDTAVYYCAADDLRCGRGWSSYFRGSWGQGTQVTVSS	binds
ciA-D1 (VHH, also called JDT-2; source: E. coli, purified as a thioredoxin fusion protein) VHH: QVQLVESGGGLVQPGGSLRLSCATSGFTLEYYAIGWFRQAPGKGREGVACMNSSGGGTNYADSVKGRFTISRDNAKKMVYLQMNSLKSEDTAVYYCVVDDFRCGSRWAAYLRSSWGQGTQVTVSS	binds
ciA-H11 (VHH, also called JEC-11; source: E. coli, purified as a thioredoxin fusion protein) VHH: QVQLVESGGGLVQPGGSLRLSCTASTLTLNYYAIGWFRQAPGKEREGVSCTGSSGGSTVYIDSVKGRFTVVRDNAKNMVYLQMDSLQPEDTAVYYCAADDLRCGRGWSSYFRGSWGQGTQVTVSS	binds
